Results taken from patent publication US20250326834A1, “COMBINATION THERAPY OF CLAUDIN 18.2 ANTAGONIST AND PD-1/PD-L1 AXIS INHIBITOR” (SUZHOU TRANSCENTA THERAPEUTICS CO., LTD., priority 2021, published 2025).

Test system: NCI-H460-CLDN18.2 xenograft tumor
Experiment: NCI-H460-CLDN18.2 and hPBMC co-inoculation xenograft tumor model
Assay type: in vivo, NOD-SCID mice
Settings: 10 mg/kg each antibody, i.p. twice a week for 5 weeks
Description: NCI-H460-CLDN18.2 was purchased from Kyinno (Cat #, KC-1450), which was stablely transfected with human CLDN18.2 expression. The tumor cells were routinely sub-cultured twice weekly by trypsin-EDTA treatment (Hyclone). The cells growing in an exponential growth phase were harvested and counted for tumor inoculation. Female SPF grade NOD-SCID mice were inoculated with 3×10^6 NCI-H460-CLDN18.2 cells and 1.5×10^6 human PBMC along with 50% matrigel. Animal were selected and randomized to 4 groups (n=10), approximately 4 hours post inoculation. Animals were then treated with 10 mg/kg Isotype control, 10 mg/kg anti-CLDN18.2 antibody 18B10, 10 mg/kg anti-PD-L1 antibody AM4B6, 10 mg/kg anti-CLDN18.2 antibody 18B10 and 10 mg/kg anti-PD-L1 antibody AM4B6 twice a week for 5 weeks by i.p. injection. Tumor size was measured twice or triple times a week in two dimensions using a caliper (INSIZE) and the volume was expressed in mm^3 using the formula: V=0.5 a×b^2 where a and b are the long and short diameters of the tumor, respectively. Results were analyzed using Prism GraphPad and expressed as mean±S.E.M. Comparisons between two groups were made by T-test, and the difference is considered significant if p is *<0.05 and **<0.01.

B1: AM4B6: anti-PD-L1 antibody; VH SEQ ID NO: 17, VL SEQ ID NO: 18 (antibody, V domains shown)
VH: QVQLVQSGAEVKKPGASVKVSCKASGYVFTDYYMNWVRQAPGQSLEWMGDINPNNAETLYNHKFKGRVTVTVDKSISTAYMELSRLRSDDTAVYYCVKWGDGPFAYWGQGTLVTVSS
VL: DIQMTQSPSSLSASVGDRVTITCKASQNVGAAVAWYQQKPGKAPKLLIYSVSDRYTGVPSRFSGSGSGTDFTLTISSLQPEDIATYYCQQYSNYPTFGQGTKLEIK
With B1 the “effect on tumor growth compared with isotype control” value was “no significant impact on tumor growth”, the TGI (Day 29) was 17.6% and the Tumor size (Day 29, mean ± S.E.M.) was 557.06 ± 67.47 mm^3.
